Article PMC5815094
pKd: −log10 of the molar value.

Columns and labels:
Details in all cases: ES buffer: 10 mM Tris pH 8.0, 10 mM KCl, 40 mM NaCl, 1 mM MgCl2; MST + 0.05% Tween-20, room temperature; EMSA + 25 ng tRNA per 10 ul, 37 C 15 min (Fig 6D); NMR …
[1] = biological target: Hfq (Pseudomonas aeruginosa PAO1) (UniProt Q9HUM0); test: EMSA
[2] = biological target: Hfq;Crc (Pseudomonas aeruginosa PAO1;Pseudomonas aeruginosa PAO1) (UniProt Q9HUM0+Q51380); test: MST
[3] = biological target: Hfq (Pseudomonas aeruginosa PAO1) (UniProt Q9HUM0); test: MST

For “GGACUGGUCGCGAGGCCAGCAGGUAAGCUGAGAGACCAAGCAGUCGGACUCUUCAGAUUAUCUCCUCAUCAGGCUAAUCACGGUUUCGACCCGGCACUUUGCCGGGUCUUUUUUUG [PrrF2 sRNA]”, the binding [1] was “binds”.

For PrrF2 sRNA, the pKd [2] was 7.46 and the pKd [3] was 8.17.
